The source of these data is paper PMC6995525, “Structure of the PUB Domain from Ubiquitin Regulatory X Domain Protein 1 (UBXD1) and Its Interaction with the p97 AAA+ ATPase” (Biomolecules, 2019).

“Also recorded” adds a separate entry of the source.

The target of one series is p97-C10 peptide. Kind of series: Fluorescence anisotropy, UBXD1-PUB constructs titrated to 5,6-FAM labeled p97-C10 peptide. The following applies: for Kd: UBXD1-PUB (150–264) mutants titrated to 5,6-FAM labeled p97-C10 peptide (100 nM), 50 mM NaKPi, pH 6.5, 25 °C, fluorescence anisotropy ex 495/em 518 nm, fit of averaged triplicates ± standard deviation of the fit; for change in p97 binding affinity versus wild type, in words / fold change in KD / affinity versus wild type: UBXD1-PUB mutant vs wt, p97-C10, fluorescence anisotropy. The class given is binding. The source says: N-terminal hexahistidine-tagged UBXD1-PUB (150–264) was cloned into a pET28a expression vector using the NdeI and HindIII restriction sites. UBXD1 point mutants were produced by site-directed mutagenesis following the Quikchange protocol (Agilent Technologies).
Unlabeled p97-C10 ([…]), p97-C13 ([…]), and phosphorylated p97-C13 ([…]pYG) peptides for NMR and ITC as well as 5,6-FAM-labeled peptides for fluorescence studies were purchased from Caslo ApS (Denmark).
Fluorescence anisotropy measurements (excitation: 495 nm; emission 518 nm) were carried out on a JASCO FP-8300 fluorescence spectrometer in 50 mM NaKPi, pH 6.5 at 25 °C, titrating PUB constructs to 5,6-FAM labeled p97-C10 peptide (100 nM). All titrations were performed in triplicate. Binding curves of the averaged data were fitted with GraphPad Prism 5.0 (GraphPad) using the quadratic binding equation for a one-site specific binding model:(3) r=r0+rmax⋅(F+x+KD)−(F+x+KD)^2−4⋅x⋅F/2⋅F, with r = anisotropy, r0 = anisotropy without protein, rmax = maximum anisotropy, F = fluorescent probe (labeled peptide or protein) concentration, x = titrant protein concentration, and KD = dissociation constant.
Data points are shown as means ± standard deviation based on the three experiments. KD values are given as fit of the averaged data points ± standard deviation of the fit.

A short description of series [1]: CD spectroscopy, secondary structure composition. The class given is physicochemical. Particulars: 0.15 mg/mL protein, 50 mM NaKPi pH 6.5, 25 °C; for α-helical content: 25 scans averaged, DichroWeb CDSSTR. The method, then:
CD spectra were recorded on a Jasco J-170 CD spectrometer in a 1 mm quartz cuvette at 25 °C averaging 25 scans. Samples consisted of 0.15 mg/mL protein in 50 mM NaKPi, pH 6.5. The secondary structure composition was analyzed using DichroWeb (http://dichroweb.cryst.bbk.ac.uk) employing the CDSSTR algorithm.

In another series the test system is p97. Particulars: qualitative pulldown; ref [29]; cited from earlier work. The source says: The PIM binding pockets of UBXD1-PUB and its closest homologue PNGase-PUB and the position of the p97-PIM peptide inside the pocket are almost identical, with small differences (Figure 6 and Figure 7). The side chains of the conserved UBXD1-Y181 and PNGase-Y38 are in the same position, stacking with p97-Y805 and forming a putative H-bond (3.2 or 3.1 Å, respectively) to the backbone carbonyl of p97-L804. UBDXD1-Y194 and PNGase-Y51, which represent the second conserved tyrosine of the PIM pocket, both stack with p97-Y805 and are only slightly shifted with respect to each other. However, the intr ...

B1: N201D: UBXD1-PUB point mutant (protein)
chain: STDPVAASIMKIYTFNKDQDRVKLGVDTIAKYLDNIHLHPEEEKYRKIKLQDKVFQERINCLEGTHEFFEAIGFQKVLLPAQDQEDPEEFYVLSETTLAQPQSLERHKEQLLAAE
modifications: left off: His6, N-terminal, cleaved
notes: UBXD1-PUB point mutant
For B1, at p97-C10 peptide, the Kd (usually the equilibrium constant for the complex coming apart) was determined as 280 ± 3 µM and the “change in p97 binding affinity versus wild type, in words” value (“change … in words” for short) was “largest decrease in binding affinity”.

B2: N184A: UBXD1-PUB point mutant (protein)
chain: STDPVAASIMKIYTFNKDQDRVKLGVDTIAKYLDAIHLHPEEEKYRKIKLQNKVFQERINCLEGTHEFFEAIGFQKVLLPAQDQEDPEEFYVLSETTLAQPQSLERHKEQLLAAE
modifications: left off: His6, N-terminal, cleaved
notes: UBXD1-PUB point mutant
In turn, B2 displayed a Kd on p97-C10 peptide of 28.7 ± 0.5 µM.

B3: Y194F: UBXD1-PUB point mutant (protein)
chain: STDPVAASIMKIYTFNKDQDRVKLGVDTIAKYLDNIHLHPEEEKFRKIKLQNKVFQERINCLEGTHEFFEAIGFQKVLLPAQDQEDPEEFYVLSETTLAQPQSLERHKEQLLAAE
modifications: left off: His6, N-terminal, cleaved
notes: UBXD1-PUB point mutant
For the molecule B3, in series [1], the α-helical content turned out to be 50%. For the same molecule, on p97-C10 peptide, binding was characterised by a dissociation constant (Kd) of 141 ± 2 µM and the “change … in words” value is reported as “largest decrease in binding affinity; also recorded: large decrease in affinity”.

B4: Q200A: UBXD1-PUB point mutant (protein)
chain: STDPVAASIMKIYTFNKDQDRVKLGVDTIAKYLDNIHLHPEEEKYRKIKLANKVFQERINCLEGTHEFFEAIGFQKVLLPAQDQEDPEEFYVLSETTLAQPQSLERHKEQLLAAE
modifications: left off: His6, N-terminal, cleaved
notes: UBXD1-PUB point mutant
B4: at p97-C10 peptide, the affinity, expressed as Kd, was 8.3 ± 0.3 µM and the “change … in words” value is “do not show a decreased affinity”.

B5: R207E: UBXD1-PUB point mutant (protein)
chain: STDPVAASIMKIYTFNKDQDRVKLGVDTIAKYLDNIHLHPEEEKYRKIKLQNKVFQEEINCLEGTHEFFEAIGFQKVLLPAQDQEDPEEFYVLSETTLAQPQSLERHKEQLLAAE
modifications: left off: His6, N-terminal, cleaved
notes: UBXD1-PUB point mutant
At p97-C10 peptide, B5 gave a Kd of 88 ± 1 µM. The “fold change in KD / affinity versus wild type” value is “six” with p97-C10 peptide and 6 fold with p97-C10 peptide (listed as R207 to E).

B6: K193E: UBXD1-PUB point mutant (protein)
chain: STDPVAASIMKIYTFNKDQDRVKLGVDTIAKYLDNIHLHPEEEEYRKIKLQNKVFQERINCLEGTHEFFEAIGFQKVLLPAQDQEDPEEFYVLSETTLAQPQSLERHKEQLLAAE
modifications: left off: His6, N-terminal, cleaved
notes: UBXD1-PUB point mutant
As to B6, at p97-C10 peptide, binding was put at a Kd of 17.7 ± 0.4 µM and the “change … in words” value was “do not show a decreased affinity”.

B7: Y181A: UBXD1-PUB point mutant (protein)
chain: STDPVAASIMKIYTFNKDQDRVKLGVDTIAKALDNIHLHPEEEKYRKIKLQNKVFQERINCLEGTHEFFEAIGFQKVLLPAQDQEDPEEFYVLSETTLAQPQSLERHKEQLLAAE
modifications: left off: His6, N-terminal, cleaved
notes: UBXD1-PUB point mutant
Regarding B7, at p97-C10 peptide, the Kd worked out at 111 ± 2 µM and the “change … in words” value is “largest decrease in binding affinity”.

B8: K198E: UBXD1-PUB point mutant (protein)
chain: STDPVAASIMKIYTFNKDQDRVKLGVDTIAKYLDNIHLHPEEEKYRKIELQNKVFQERINCLEGTHEFFEAIGFQKVLLPAQDQEDPEEFYVLSETTLAQPQSLERHKEQLLAAE
modifications: left off: His6, N-terminal, cleaved
notes: UBXD1-PUB point mutant
B8: the affinity on p97-C10 peptide, expressed as Kd, was 49.3 ± 0.8 µM.

B9: N201A: UBXD1-PUB point mutant (protein)
chain: STDPVAASIMKIYTFNKDQDRVKLGVDTIAKYLDNIHLHPEEEKYRKIKLQAKVFQERINCLEGTHEFFEAIGFQKVLLPAQDQEDPEEFYVLSETTLAQPQSLERHKEQLLAAE
modifications: left off: His6, N-terminal, cleaved
notes: UBXD1-PUB point mutant
As for B9, at p97-C10 peptide, binding was characterised by a dissociation constant (Kd) of 64.1 ± 0.8 µM and the “fold change in KD / affinity versus wild type” value amounted to 5 fold.

B10: N184D: UBXD1-PUB point mutant (protein)
chain: STDPVAASIMKIYTFNKDQDRVKLGVDTIAKYLDDIHLHPEEEKYRKIKLQNKVFQERINCLEGTHEFFEAIGFQKVLLPAQDQEDPEEFYVLSETTLAQPQSLERHKEQLLAAE
modifications: left off: His6, N-terminal, cleaved
notes: UBXD1-PUB point mutant
B10 showed a Kd at p97-C10 peptide of 80 ± 2 µM.

B11: V203A: UBXD1-PUB point mutant (protein)
chain: STDPVAASIMKIYTFNKDQDRVKLGVDTIAKYLDNIHLHPEEEKYRKIKLQNKAFQERINCLEGTHEFFEAIGFQKVLLPAQDQEDPEEFYVLSETTLAQPQSLERHKEQLLAAE
modifications: left off: His6, N-terminal, cleaved
notes: UBXD1-PUB point mutant
At p97-C10 peptide, B11 displayed a Kd of 25.3 ± 0.5 µM. Against the preceding molecule, the Kd is about 3.2-fold lower.

B12: Y194A: UBXD1-PUB point mutant (protein)
chain: STDPVAASIMKIYTFNKDQDRVKLGVDTIAKYLDNIHLHPEEEKARKIKLQNKVFQERINCLEGTHEFFEAIGFQKVLLPAQDQEDPEEFYVLSETTLAQPQSLERHKEQLLAAE
modifications: left off: His6, N-terminal, cleaved
notes: UBXD1-PUB point mutant
Consider B12, for which the α-helical content in series [1] was 30%. Besides, in series [1] (compared with wild type), the “folding / secondary structure, in words” value was “partial loss of secondary structure”. Also, on p97-C10 peptide, the Kd was 53 ± 2 µM and the “change … in words” value is recorded as “large decrease in affinity”.

B13: Y181F: UBXD1-PUB point mutant (protein)
chain: STDPVAASIMKIYTFNKDQDRVKLGVDTIAKFLDNIHLHPEEEKYRKIKLQNKVFQERINCLEGTHEFFEAIGFQKVLLPAQDQEDPEEFYVLSETTLAQPQSLERHKEQLLAAE
modifications: left off: His6, N-terminal, cleaved
notes: UBXD1-PUB point mutant
Molecule B13 showed a Kd at p97-C10 peptide of 28.4 ± 0.6 µM.

B14: E206R: UBXD1-PUB point mutant (protein)
chain: STDPVAASIMKIYTFNKDQDRVKLGVDTIAKYLDNIHLHPEEEKYRKIKLQNKVFQRRINCLEGTHEFFEAIGFQKVLLPAQDQEDPEEFYVLSETTLAQPQSLERHKEQLLAAE
modifications: left off: His6, N-terminal, cleaved
notes: UBXD1-PUB point mutant
The molecule B14 displayed a Kd at p97-C10 peptide of 39.4 ± 0.9 µM.

B15: PNGase K50A, Y51A double mutant: PNGase double mutant (protein, UniProt Q96IV0 2-654, looked up, variant K50A Y51A)
Peptide-N(4)-(N-acetyl-beta-gl …: AAAALGSSSGSASPAVAELCQNTPETFLEASKLLLTYADNILRNPNDEAARSIRIGNTAFSTRLLPVRGAVECLFEMGFEEGETHLIFPKKASVEQLQKIRDLIAIERSSRLDGSNKSHKVKSSQQPAASTQLPTTPSSNPSGLNQHTRNRQGQSSDPPSASTVAADSAILEVLQSNIQHVLVYENPALQEKALACIPVQELKRKSQEKLSRARKLDKGINISDEDFLLLELLHWFKEEFFHWVNNVLCSKCGGQTRSRDRSLLPSDDELKWGAKEVEDHYCDACQFSNRFPRYNNPEKLLETRCGRCGEWANCFTLCCRAVGFEARYVWDYTDHVWTEVYSPSQQRWLHCDACEDVCDKPLLYEIGWGKKLSYVIAFSKDEVVDVTWRYSCKHEEVIARRTKVKEALLRDTINGLNKQRQLFLSENRRKELLQRIIVELVEFISPKTPKPGELGGRISGSVAWRVARGEMGLQRKETLFIPCENEKISKQLHLCYNIVKDRYVRVSNNNQTISGWENGVWKMESIFRKVETDWHMVYLARKEGSSFAYISWKFECGSVGLKVDSISIRTSSQTFQTGTVEWKLRSDTAQVELTGDNSLHSYADFSGATEVILEAELSRGDGDVAWQHTQLFRQSLNDHEENCLEIIIKFSDL
Consider B15, for which the “binding in pulldown assay” value with p97 is recorded as “did not show impaired binding”.
